Experimental data from paper PMC4238058.

Assays:
[1] = target: triply phosphorylated TIR3Y (His8-tagged human Nephrin tail with its pTyr sites replaced by the pTyr motif of EPEC Tir) (EPEC | human)
[2] = target: triply phosphorylated His8-tagged Nephrin cytoplasmic tail (amino acids 1174-1223, Y1183F, Y1210F; pTyr1176, pTyr1193, pTyr1217) (human)
[3] = target: (SH3)3: three repeats of the second Nck SH3 domain, plus the Nck SH2 domain (human)

Substance | clustering concentration of (SH3)3 (SH3 module concentration) on bilayers with p-TIR at 2000 molecules/um^2 and 500 nM N-WASP [1] [nM] | clustering concentration of (SH3)3 (SH3 module concentration) on bilayers with p-Nephrin and 500 nM N-WASP [2] [nM] | equilibrium fractional intensity of p-Nephrin clusters (1 uM (SH3)3, 500 nM N-WASP) against peptide concentration, 100 nM to 100 uM; the pair that is blocked: (SH3)3 with p-Nephrin [3] [µM]
(SH3)3: three repeats of the second Nck SH3 domain, plus the Nck SH2 domain (designed binder) | 100 | 200 | –
TIR-1pY: N-terminal rhodamine labeled single pTyr motif from EPEC Tir protein (peptide) | – | – | > 10
